This note sets out measurements from patent US20250304677A1 (VIB VZW, published 2025).

The target of experiment [1] is T1, mouse folate receptor alpha (mFRα), recombinant protein (mouse, UniProt P35846 25-232).
T1 construct: Bought recombinant proteins (e.g. biotinylated, Acro Biosystems FO1-M82E9); also called mFOLR1; Ms FOLR1
In words: method of this value not stated (ELISA, BLI and FACS named).

Experiment [2] addresses T1, mouse folate receptor alpha (mFRα), …. In words: BLI, biotinylated FOLR1 on streptavidin biosensors. As for the experimental part: (§1) The off-rates of the 2HFO9 ^{∘}FIG. 5A) and 2MFR67 ^{∘}FIG. 5B) mutants and the three wild-type ^{∘}WT) VHHs from family 3 were determined by biolayer interferometry ^{∘}BLI) on both mouse and human biotinylated folate receptor alpha ^{∘}FOLR1) that was immobilized on streptavidin biosensors. The off-rates were calculated using a 1:1 binding model. The fold change compared to the off-rates of the corresponding WT VHH is represented as the WT VHH off-rate divided by the off-rate of the mutant for the VHHs that show an improved off-rate compared to the WT. For the VHHs that show a worse off-rate compared to the WT, the fold change is represented as the negative value of the mutant VHH off-rate divided by the WT off-rate. The red bars represent the WT 2HFO9 and 2MFR67 in the upper and lower panel respectively.

Experiment [3] has as its target T2, human folate receptor alpha (hFRα), recombinant protein (human, UniProt P15328 25-233).
T2 construct: Bought recombinant proteins (His-tagged, or biotinylated via Avi-tag, e.g. AcroBiosystems FO1-H82E2, F01-H52H1); also called hFOLR1; huFOLR1
In words: BLI, biotinylated FOLR1 on streptavidin biosensors. The procedure: as §1

The target in experiment [4] is T1, mouse folate receptor alpha (mFRα), …. In words: ELISA, periplasmic extract. The source says:
(§2) From the lymphocytes of each llama a separate VHH library was constructed to select and screen for the presence of antigen-specific VHHs. To this end, total RNA from peripheral blood lymphocytes was used as template for first strand cDNA synthesis with an oligo ^{∘}dT) primer. Using this cDNA, the VHH encoding sequences were amplified by PCR, digested with PstI and NotI, cloned into the PstI and NotI sites of the phagemid vector pMECS and transformed into E. coli to generate VHH libraries. To enrich these libraries for FRα ^{∘}or FOLR1, as used interchangeably herein)-specific VHHs, a combinatorial panning approach on recombinant human and mouse FOLR1 was used followed by random selection and screening of clones by ELISA for the presence of antigen-specific VHHs in their periplasmic extracts ^{∘}PEs). In order to gauge the cross-reactivity for human and mouse FOLR1, each clone was tested on both antigens.
(§3) After panning of core76/77 on human and mouse folate receptor alpha ^{∘}FRα), […] were randomly selected from the second and third rounds and analyzed by ELISA on both human and mouse FRα for the presence of FRα-specific VHHs in their periplasmic extracts ^{∘}PE). This led to the identification of 98 hits. For these 98 hits, the off-rate ^{∘}koff) in the PE was determined by biolayer interferometry ^{∘}BLI) on both mouse and human FRα that was directly immobilized onto AR2G biosensors. The off-rates were calculated using a 1:1 binding model. […] Abbreviations: SE: standard error.

Experiment [5] concerns the target T2, human folate receptor alpha (hFRα), …. In words: ELISA on recombinant human FOLR1, cMyc tag detection, normalised binding, non-linear fit. The procedure: (§4) Data were normalized and technical replicates were plotted as mean±SD. Data were fitted by non-linear regression and the half-maximal effective concentration ^{∘}EC50) was calculated using GraphPad Prism 9 software. ^{∘}FIG. 1C and FIG. 1D) Binding affinity determination of anti-FOLR1 VHHs for native FOLR1. Mouse ^{∘}FIG. 1C) or human FOLR1 FIG. 1D) was overexpressed on HEK293T cells and binding of the anti-FOLR1 VHHs was assessed using flow cytometry. The mean fluorescence intensity ^{∘}MFI) of the phycoerythrin signal was plotted for each VHH concentration. Data were fitted by non-linear regression using GraphPad Prism 9 software. ^{∘}FIG. 1E) Determination of the competition of representative family members with folic acid ^{∘}FA) using ELISA. Mouse FOLR1 was coated on the plate and was pre-incubated with or without 100 μM FA before adding the VHHs. Data were fitted by non-linear regression using GraphPad Prism 9 software.
(§5) In a first step, binding affinity and cross-reactivity of the purified VHHs to human and mouse FRα was assessed by ELISA, using detection of the cMyc tag ^{∘}FIG. 1A-B). […] 2HFO19 ^{∘}family 1) was the best binder of all tested VHHs to both mouse and human FRα with an EC₅₀ of 0.1 nM and 0.4 nM respectively ^{∘}FIG. 1A-B).
Background: In an ELISA, binding on a coated surface is turned into a signal by an enzyme label.

Experiment [6] deals with T1, mouse folate receptor alpha (mFRα), …. In words: BLI, periplasmic extract, FRα on AR2G biosensors. As for the experimental part:
as §3
For orientation: BLI is a label-free optical method that tracks binding on a fibre tip over time.

Experiment [7] shares this target. In words: BLI, FRα on AR2G biosensors, 1:1 model. The procedure:
As a next step, the kinetic binding constants were determined using BLI ^{∘}Table 3). […] Similar to the ELISA results ^{∘}FIG. 1A-B), higher binding affinities were measured for mouse FRα than human FRα, with KD values […] one order of magnitude in most cases. […] For 3HFO28, binding to human FRα could not be confirmed by BLI, and this VHH was excluded from further characterization.
The kinetic parameters were calculated using a 1:1 binding model.

Experiment [8] has the same target. In words: ELISA on recombinant mouse FOLR1, cMyc tag detection, normalised binding, non-linear fit. The procedure: as §4, §5
Experiment [9] deals with T2, human folate receptor alpha (hFRα), …. As to the kind of experiment: ELISA, periplasmic extract; unpurified periplasmic extract, PE-ELISA (ratio of coated to uncoated well).
From the text: as §2, with “In order to gauge the cross-reactivity for human and mouse FOLR1, each clone was tested on both antigens.” left out
After panning of core76/77 on human and mouse folate receptor alpha ^{∘}FRα), 95 colonies were randomly selected from the second and third rounds and analyzed by ELISA on both human and mouse FRα for the presence of FRα-specific VHHs in their periplasmic extracts ^{∘}PE). […] For these 98 hits, the off-rate ^{∘}koff) in the PE was determined by biolayer interferometry ^{∘}BLI) on both mouse and human FRα that was directly immobilized onto AR2G biosensors. The off-rates were calculated using a 1:1 binding model. […]

Experiment [10] addresses T3, human folate receptor beta (FRβ) (human, UniProt P14207 17-230, limits assumed).
T3 construct: also called hFOLR2; human FOLR2
In words: method not named (follows the ELISA of Example 3).

Experiment [11] has as its target T2, human folate receptor alpha (hFRα), …. In words: BLI, periplasmic extract, FRα on AR2G biosensors; unpurified periplasmic extract, BLI off-rate screen. The procedure: as §3

T2 sequence (P15328 25-233 limits assumed): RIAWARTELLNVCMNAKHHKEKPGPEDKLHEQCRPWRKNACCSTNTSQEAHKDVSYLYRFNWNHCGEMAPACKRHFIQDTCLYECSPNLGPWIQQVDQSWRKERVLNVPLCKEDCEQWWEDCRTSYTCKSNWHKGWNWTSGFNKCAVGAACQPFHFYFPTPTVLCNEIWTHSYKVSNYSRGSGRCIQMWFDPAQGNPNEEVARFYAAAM
T1 sequence (P35846 25-232 limits assumed): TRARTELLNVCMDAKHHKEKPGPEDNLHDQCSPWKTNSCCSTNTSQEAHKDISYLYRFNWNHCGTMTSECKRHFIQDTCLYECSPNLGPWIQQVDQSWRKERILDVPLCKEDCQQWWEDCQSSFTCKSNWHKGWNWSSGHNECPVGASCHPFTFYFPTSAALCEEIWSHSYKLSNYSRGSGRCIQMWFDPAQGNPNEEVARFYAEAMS
T3 sequence (P14207 17-230 limits assumed): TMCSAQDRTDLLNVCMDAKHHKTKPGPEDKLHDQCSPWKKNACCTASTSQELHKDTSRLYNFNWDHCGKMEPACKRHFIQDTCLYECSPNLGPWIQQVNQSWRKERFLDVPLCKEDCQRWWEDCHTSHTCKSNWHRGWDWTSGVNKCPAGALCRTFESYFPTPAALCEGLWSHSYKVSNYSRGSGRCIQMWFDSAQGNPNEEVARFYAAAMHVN

B1: 2HFO42-NT (2HFO42 fused to neurotensin) (VHH)
VHH: QVQLQESGGGLVQAGGSLRLSCAASGSGFSGMIMGWYRQVPGKQRELVATVTSHGTTNYADSVKGRFTISRDNAKNTVLLQMNSLKPEDTAVYYCNAHFPGIYWGKGTQVTVSS
Broadly, the Kd is the free concentration of one partner at which half of the binding sites on the other are occupied at equilibrium, for simple one-to-one binding. A word on the koff: it is a measure of how fast the partners let go of each other. As to B1, the Kd in experiment [1] was found to be 23.3 nM. Moreover, in experiment [2], the “Fold to 2HF042 (koff)” value is 1 and the koff turned out to be 0.00222 s⁻¹. In addition, in experiment [3], the “Fold hu/ms (koff)” value was 7 and the dissociation rate constant (koff) came out at 0.0154 s⁻¹.

B2: VHH 3HFO28 (family 7) (VHH)
VHH: QVQLQESGGGLVQPGGSLRLSCAASGSTLDRYEIGWFRQAPGKGRERVSCISTTSSTYEDSVKGRFTISRDNAKNTVYLQMNSLKPEDTAVYYCATVRVAWSTCFPTGDSWGKGTQVTVSS
In general, EC50 refers to the concentration at which the effect is half-maximal. The term kon denotes the rate constant with which the complex forms. With B2, the “PE-ELISA (ratio to uncoated well)” value in experiment [4] came to 34.9; in experiment [9], 35.6. Further, the values for the EC50 in [5] and in [8] were 1.5 nM and 84.3 nM, respectively. The results for the koff in experiment [6], in experiment [7] and in experiment [11] were 0.00425 s⁻¹, 0.00582 s⁻¹ and 0.00827 s⁻¹, respectively. The Kd in [7] is 12.6 nM. Further, the kon in experiment [7] was determined as 464000 M⁻¹ s⁻¹. Moreover, the binding result in experiment [10] was “no binding”.
